Reference: publication PMC2671599, “Intraflagellar Transport (IFT) Protein IFT25 Is a Phosphoprotein Component of IFT Complex B and Physically Interacts with IFT27 in Chlamydomonas” (PLoS ONE, 2009)

Key:
GST-IFT27 [1] = target: T1, GST-IFT27 (Chlamydomonas reinhardtii, UniProt A8HN58 1-204); assay: pull-down; GST-IFT27 (~2 ug) on Glutathione Sepharose 4B beads, incubated 1 hour with MBP-IFT25 (~2 ug), MBP-IFT25 plus MBP, or MBP (2 ug); 1xHMDEK, 4 C; supernatant and pellet on SDS-PAGE, Coomassie and immunoblot; conditions: both partners purified
T1 construct: IFT27, Rab-like small GTPase component of IFT complex B, Chlamydomonas reinhardtii; also called GST-tagged IFT27; source: E. coli BL21 (DE3) pLysE, pGEX-2T-IFT27, purified (Glutathione Sepharose 4B, eluted with reduced glutathione)
T1 sequence (looked up): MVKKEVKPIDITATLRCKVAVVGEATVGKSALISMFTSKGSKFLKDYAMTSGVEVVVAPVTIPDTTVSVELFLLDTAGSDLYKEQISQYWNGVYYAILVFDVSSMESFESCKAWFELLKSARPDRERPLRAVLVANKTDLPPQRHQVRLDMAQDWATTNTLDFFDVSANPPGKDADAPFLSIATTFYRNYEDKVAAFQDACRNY

GST-IFT27 [2] = target: T2, GST-IFT27 (Chlamydomonas reinhardtii …, UniProt A8HN58); assay: pull-down (GST and amylose resin)
T2 chain: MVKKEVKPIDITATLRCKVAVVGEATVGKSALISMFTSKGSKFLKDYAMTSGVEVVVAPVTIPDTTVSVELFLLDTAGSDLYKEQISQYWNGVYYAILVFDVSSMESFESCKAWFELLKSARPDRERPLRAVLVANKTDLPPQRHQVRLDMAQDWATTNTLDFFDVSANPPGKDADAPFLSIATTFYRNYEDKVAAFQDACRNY

binding result (GST-IFT27 [1]): binds
binding result (GST-IFT27 [2]): binds
B1: MBP-IFT25 (natural protein, Chlamydomonas reinhardtii, UniProt B8LIX8 1-189, looked up)
chain: MKDYAREENGGLVVMASCSDERFPPENMLDGKDNTFWVTTGMFPQEFVLRLESCIRVSKITTLSLNVRKLAVEKCDQDKPDQFEKVFEVELANRGDRLQTEVHQVNIRAKYLKFILLQGHGEFATVNRVSVVGGDDDGGGYDEPGGGYGSMQRQPSMGYGGGGGSAATGFAADPGNAAAGGGGGFEDEF
notes: IFT25 (Flagellar Associated Protein FAP232) of Chlamydomonas reinhardtii; cDNA of 570 nucleotides, predicted about 20 kD; the 3' end of the FAP232 gene model was predicted incorrectly, the corrected cDNA is GenBank EF593953; Details of vector construction are 'available upon request'; also called MBP-tagged IFT25; FAP232; source: E. coli BL21 (DE3) pLysE, pMAL-c2-IFT25, purified (amylose resin, …)
